The source of these data is patent publication US20150148405A1, “Expression Construct for a Lin28-Resistant Let-7 Precursor MicroRNA” (THE JOHNS HOPKINS UNIVERSITY, priority 2012, published 2015).

Holding throughout (type): cell-based, mouse
In experiment [1] the test system is GW182. In words: Immunopurification of GW182: associated RNA, mRNAs and proteins. The procedure: Proteins and mRNAs associated with P-body component GW182 were isolated through immunoprecipitation of GW182 by modification of previously published protocols (Keene et al., 2006; Moser et al., 2009). Primary cultures of mouse hippocampal neurons (DIV 14-15) were incubated in serum-reduced medium (0.5% B27 supplement) for 2 hours, followed by […] Actinomycin-D for […] and mock or BDNF-stimulation for 30˜60 min. Cell lysates were harvested in polysomal lysis buffer (100 mM KCl, 5 mM MgCl2, 10 mM HEPES pH 7.0, 0.5% NP-40) with protease inhibitor cocktail and freshly added 20 mM EDTA, 1 mM DTT, 100 U/mL RNase inhibitor (RNaseOut, Invitrogen) and 400 μM Vanadyl ribonucleoside complexes (SIGMA). Lysates were centrifuged and the supernatants pre-cleared by one-hour incubation with recombinant protein G beads pre-washed in NT2 buffer (50 mM Tris-HCl pH 7.4, 150 mM NaCl, 1 mM MgCl2, 0.05% NP-40). Antibody coating of protein G beads was carried out with antiserum against GW182 (18033, gift of M. Fritzler) or control isotype-specific serum in NT2 buffer plus protease inhibitor for 4 hours after blocking with NT2 buffer plus 5% BSA and 1 mg/mL heparin for 1 hour. For immunoprecipitation (IP), equal amounts of lysate protein (2-5 mg) was incubated with antibody-coated beads and tumbled for 4 hours at 4° C., followed by washing. RNAs were recovered from GW182 immunoprecipitates by Tri-Reagent as described below. Recovered RNAs were resuspended in nuclease-free water, measured for RNA concentration, and immediately reverse transcribed into cDNA using a combination of random decamers and oligo(dT) primers. RT-qPCR was carried out as described below. To examine proteins co-immunoprecipitated with GW182, the washed IP beads were incubated in sample buffer at 95° C. for 5 minutes and subjected to SDS-PAGE electrophoresis and immunoblotting.

The subject of experiment [2] is TRBP. As to the kind of experiment: Immunoblotting for TRBP. Conditions: 5 min after BDNF; +/-0.86. The procedure: Primary cultures of mouse hippocampal neurons (DIV 14 15) were incubated in serum-reduced medium (0.5% B27 supplement) for 2 hours, followed by […] Actinomycin-D for 10-20 min. Bath application of BDNF (100 ng/mL) was for designated periods (5 min-2 hours). The cultures were washed 3 times and harvested on ice with lysis buffer (50 mM Hepes, 150 mM NaCl, 10% Glycerol, 1 mM EDTA, 1% Triton-X-100, 0.2% SDS) plus freshly added protease inhibitor cocktail (Roche) and PMSF. Protein concentration was determined by Bradford Assay. If required, lysates were treated with Lambda Protein Phosphatase according to manufacturer's instructions (New England Biolabs […]). Equal amounts of lysate protein were resolved on SDS-PAGE gels, and electrotransferred to PVDF membrane. […]
In general terms: In western blotting, separated proteins are transferred to a membrane and probed.

Experiment [3] concerns Let-7 miRNA binding sites. As to the kind of experiment: Let-7 luciferase reporter assay. To be noted: BDNF 4 hr, transcription blockade; control reporters unchanged. An excerpt:
Let-7 luciferase reporters (gift of G. Hannon) harbor a wildtype or a mutant Let-7 miRNA binding site. The Let-7 miRNA binding sites are derived from a short 3′UTR segment of C. elegans Lin41 mRNA containing two adjacent proven Let-7 miRNA biding sites and are cloned into 3′UTR of firefly luciferase in a pcDNA backbone. Mutations in seed regions of both Let-7 binding sites were made for a negative control reporter, which was documented not regulated by endogenous Let-7 miRNAs. Co-transfection of the pCSK-lacZ vector, which constitutively expresses β-galactosidase and is not regulated by shRNA, served to normalize transfection efficiency and extract recovery for each sample in all reporter assays. The DNA amounts used for each well (24 well plate) were 15 ng of any luciferase reporter, 85 ng of β-gal (CSK-LacZ), and/or 75-300 ng of CXCR4 shRNA. Each reporter experiment included extracts from cells transfected with pcDNA3.1 alone as a reference control. […] Cell lysates were collected in 1×lysis buffer (reporter lysis buffer, Promega), and luciferase (Promega) and chemiluminescent β-gal (Roche) reporter assays carried out according to manufacturer instructions using a plate-reading luminometer (Perkin Elmer). […] When required, fold change was calculated by dividing normalized stimulated samples by normalized unstimulated samples.
On the technique in general: A reporter such as luciferase makes a cellular process visible.

Experiment [4] relates to cultured neurons. In words: 35S-labelling total protein synthesis. Conditions: mock or BDNF 100 ng/mL 2 hours, Actinomycin-D. The procedure: Cultured neurons were pre-incubated in media containing reduced-serum and Actinomycin-D as previously described, followed by washing and incubation for 10 min with methionine- and cysteine-free DMEM (Mediatech, Inc.), and ^35S labeling in the same DMEM with the addition of ^355-methionine/cysteine (^35S Met/Cys EasyTag Mix, Perkin Elmer) to a final concentration of […]. Mock- or BDNF stimulation was for 2 hours. Cells were washed and lysed with lysis buffer (see immunoblotting). Lysates were centrifuged and collected supernatants subjected to Bradford assay. To assess newly synthesized proteins, 200-500 μg of lysates proteins were precipitated with 10% trichloroacetic acid (TCA) for 1 hour on ice in the presence of 0.5% deoxycholate (DOC) to remove interfering phenol red. After centrifugation, protein pellets were washed with ice-cold 95% ethanol, solubilized in denaturing buffer ([…] Tris pH 8.3, 5 mM EDTA, 0.05% SDS, 6M urea), and subjected to liquid scintillation counting (Econofluor, New England Nuclear, Inc.). ^35S Disintegration per minute (DPM) was used to quantitate protein synthesis after subtraction of background readings.

B1: BDNF: brain-derived neurotrophic factor, a neurotrophin used to stimulate hippocampal neurons (protein, UniProt P23560 19-247, looked up)
Neurotrophic factor BDNF …: APMKEANIRGQGGLAYPGVRTHGTLESVNGPKAGSRGLTSLADTFEHVIEELLDEDQKVRPNEENNKDADLYTSRVMLSSQVPLEPPLLFLLEEYKNYLDAANMSMRVRRHSDPARRGELSVCDSISEWVTAADKKTAVDMSGGTVTVLEKVPVSKGQLKQYFYETKCNPMGYTKEGCRGIDKRHWNSQCRTTQSYVRALTMDSKKRIGWRFIRIDTSCVCTLTIKRGR
B1: the “association of P-body components Ago2 and Dcp1a with GW182” value in experiment [1] (co-immunoprecipitation, BDNF 1 hour) is listed as “increased the association”. Besides, in experiment [1] (control shRNA conditions), the “GW182-association of mRNAs whose translation is downregulated by BDNF (KCC2, Kv1.1)” value is “promoted the GW182-association” and the “GW182-association of mRNAs whose translation is upregulated by BDNF (GluR1, CaMKIIu, Homer2)” value was “reduced the GW182-association”. In experiment [2], the “total TRBP protein levels, fold increase” value was 2.61 fold. For the same molecule, the “luciferase reporter containing Let-7 binding sites” value in experiment [3] was “significantly induced”. For the same molecule, the “total protein synthesis (35S incorporation)” value in experiment [4] was “modest enhancement of total translation”.
